These results are taken from article PMC7908025 (ACS Central Science, 2021).

Data set [1] has as its target porcine N-acyl-D-glucosamine 2-epimerase (AGE) (Sus scrofa, UniProt P17560). The format is biochemical. The settings on record: 35 °C, 48 h.
Another data set concerns the target PmST1 (Pasteurella multocida, UniProt Q15KI8). Format: biochemical.
The subject of data set [2] is CC(=O)N[C@H]1[C@H]([C@H](F)[C@H](O)CO)O[C@@](O[C@H]2[C@@H](O)[C@@H](CO)O[C@@H](Oc3ccc4c(C)cc(=O)oc4c3)[C@@H]2O)(C(=O)O)C[C@@H]1O. In words: purified protein.
Data set [3] has as its system CC(=O)N[C@H]1[C@H]([C@H](O)[C@H](O)CO)O[C@](OP(=O)(O)OC[C@H]2O[C@@H](n3ccc(N)nc3=O)[C@H](O)[C@@H]2O)(C(=O)O)C[C@@H]1O. Briefly: purified protein.

porcine N-acyl-D-glucosamine 2-epimerase (AGE), sequence (P17560 whole entry): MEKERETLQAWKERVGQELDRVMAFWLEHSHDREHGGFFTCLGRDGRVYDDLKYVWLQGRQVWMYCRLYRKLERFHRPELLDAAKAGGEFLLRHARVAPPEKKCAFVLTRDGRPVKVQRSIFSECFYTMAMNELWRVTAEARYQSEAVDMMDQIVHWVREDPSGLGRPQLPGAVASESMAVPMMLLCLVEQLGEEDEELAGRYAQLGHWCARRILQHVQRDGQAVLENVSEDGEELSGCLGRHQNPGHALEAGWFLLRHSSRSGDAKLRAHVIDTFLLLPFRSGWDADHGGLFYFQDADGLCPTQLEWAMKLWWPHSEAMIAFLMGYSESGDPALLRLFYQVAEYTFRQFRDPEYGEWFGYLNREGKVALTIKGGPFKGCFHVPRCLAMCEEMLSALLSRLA

For the compound `CC(=O)N[C@H]1C(O)O[C@H](CO)[C@H](F)[C@@H]1O` (stereo partly drawn) [compound 2, 4-deoxy-4-fluoro-GalNAc], the “one-pot epimerase/aldolase conversion, 19F NMR” value in data set [1] was “the epimerase was converting the GalNAc starting material”.
In the case of `CC(=O)N[C@H]1[C@H]([C@H](O)[C@H](O)CO)O[C@](OP(=O)(O)OC[C@H]2O[C@@H](n3ccc(N)nc3=O)[C@H](O)[C@@H]2O)(C(=O)O)C[C@@H]1O` [compound 9, CMP-7OHSA], the Km at PmST1 amounted to 89 µM.
For (Micromonospora viridifaciens), in data set [2], the Km is 1.2 (±0.15) mM and the kcat/Km was 2250 ± 1000 M⁻¹ s⁻¹.
Regarding (Photobacterium sp. JT-ISH-224), in data set [3], the Km is 70 (±1) μM and the kcat/Km was determined as 656000 M⁻¹ s⁻¹.

The kcat/Km is the second-order rate constant that governs catalysis at low substrate concentration.
